Measurements as given in paper PMC9504841.

How the values were obtained:
[1] = target: MPER_(664–690) peptide (HIV-1); test: ITC; Fab at 3 μM titrated with 12 injections of 40 μM peptide; VP-ITC, 25 °C; 10 mM sodium phosphate pH 7.5, 150 mM NaCl, 10% glycerol, 5 mM DPC; one-site binding model
[2] = target: native HIV-1 Env (PVO, clone 4) on virions (HIV-1)

Substance | Kd [1] [nM] | dH [1] [kcal/mol] | stoichiometry N [1] | pseudovirus neutralisation (cell-entry inhibition, TZM-bl cells; JRCSF and PVO.4 PsV): potency of the Fab against the parental Fab 10E8-WT [2] [fold]
10E8-2R Fab (LC S30R/N52R) | 46.3 | -6.24 | 1.17 | 
10E8-2RF Fab (LC S30R/N52R, HC S100cF) | 41.3 | -2.3 | 1.16 | 50
10E8-WT Fab | 32.4 | -6.73 | 1.12 | 
